Measured values as given in PMC7954794, “Protein context shapes the specificity of SH3 domain-mediated interactions in vivo” (Nature Communications, 2021).

B1: S. cerevisiae Abp1 (full length; SH3 domain 535-592 mutated) / Hua2 (parent)
chain 1: MALEPIDYTTHSREIDAEYLKIVRGSDPDTTWLIISPNAKKEYEPESTGSSFHDFLQLFDETKVQYGLARVSPPGSDVEKIIIIGWCPDSAPLKTRASFAANFAAVANNLFKGYHVQVTARDEDDLDENELLMKISNAAGARYSIQTSSKQQGKASTPPVKKSFTPSKSPAPVSKKEPVKTPSPAPAAKISSRVNDNNDDDDWNEPELKERDFDQAPLKPNQSSYKPIGKIDLQKVIAEEKAKEDPRLVQKPTAAGSKIDPSSDIANLKNESKLKRDSEFNSFLGTTKPPSMTESSLKNDDDKVIKGFRNEKSPAQLWAERKAKQNSGNAETKAEAPKPEVPEDEPEGEPDVKDLKSKFEGLAASEKEEEEMENKFAPPPKKSEPTIISPKPFSKPQEPVKAEEAEQPKTDYKKIGNPLPGMHIEADNEEEPEENDDDWDDDEDEAAQPPLPSRNVASGAPVQKEEPEQEEIAPSLPSRNSIPAPKQEEAPEQAPEEEIEEEAEEAAPQLPSRSSAAPPPPPRRATPEKKPKENPWATAEYDYDAAEDNELTFVENDKIINIEFVDDDWWLGELEKDGSKGLFPSNYVSLGN
chain 2: MQQTKFGKMYLDHDSVVEYSEDEIVEADRITLGYKKRLSMIENQMRHLLEDFSLDVQQIEPILADLQKYYDAFLQLLQKRNKSLQCKRSTHQPVPSPMNSQTSTNAKVNLSGKLMKFQLNSVQKFDEENILRILQNKIEFEHYFQIDKGKKQKVLLLAVYQCLNGPTRLHKVLNIEGIIHNNSIRTILGKQVSSSKWTVFLYDVKLVLLAHRQDVPNLETSKMIVRYGDLFPCALYFKDHTAY

Variants of: B1
Test: DHFR protein-fragment complementation in yeast (Abp1-DHFR F[1,2] x partner-DHFR F[3]), deep mutational scanning, second methotrexate selection vs reference
Settings: with Hua2; S. cerevisiae, DHFR-PCA selection in liquid with methotrexate at 30 C, two 72 h selections (the score uses the second); reference = the pre-selection culture; not an affinity; scale: DMS score: mean over two replicates of log2(f_test/f_ref + 0.5)/ln 2, minus the synonymous-codon median
With chain 1 A537D the screen value was -2.14.
With chain 1 A537F the screen value was -2.93.
With chain 1 A537P the screen value was -2.58.
For chain 1 A537S, the screen value was -2.6.
In the case of chain 1 A537T, the screen value is reported as -1.87.
With chain 1 A537V the screen value was -2.01.
In the case of chain 1 A539E, the screen value is reported as -2.3.
Variant chain 1 A539G has a screen value of -2.8.
Variant chain 1 A539P has a screen value of -2.72.
Work on chain 1 A539S yielded a screen value of -1.72.
chain 1 A539T was tested, and the screen value was -1.45.
Work on chain 1 A545D yielded a screen value of -1.35.
For chain 1 A545F, the screen value was -2.84.
Variant chain 1 A545H has a screen value of -1.96.
chain 1 A545L gave a screen value of -2.7.
With chain 1 A545M the screen value was -1.83.
Variant chain 1 A545P has a screen value of -1.42.
In the case of chain 1 A545V, the screen value is reported as -1.96.
In the case of chain 1 A545W, the screen value is reported as -2.91.
In the case of chain 1 A545Y, the screen value is reported as -2.53.
Variant chain 1 A546P has a screen value of -2.02.
Work on chain 1 D542I yielded a screen value of -2.41.
chain 1 D542L was tested, and the screen value was -1.84.
chain 1 D542V gave a screen value of -1.37.
Variant chain 1 D542W has a screen value of -1.61.
With chain 1 D542Y the screen value was -1.41.
chain 1 D548Y showed a screen value of -1.22.
For chain 1 D557A, the screen value was -2.31.
With chain 1 D557C the screen value was -2.97.
chain 1 D557G showed a screen value of -2.9.
chain 1 D557K was tested, and the screen value was -2.91.
With chain 1 D557M the screen value was -2.77.
chain 1 D557N showed a screen value of -1.63.
chain 1 D557S showed a screen value of -2.41.
Work on chain 1 D557V yielded a screen value of -2.87.
Work on chain 1 D557Y yielded a screen value of -2.77.
In the case of chain 1 D566V, the screen value is reported as -2.75.
chain 1 D567Y gave a screen value of -1.92.
With chain 1 D568C the screen value was -2.91.
Work on chain 1 D577A yielded a screen value of -1.59.
For chain 1 D577E, the screen value was -1.09.
With chain 1 D577G the screen value was -1.18.
With chain 1 D577H the screen value was -2.21.
Variant chain 1 D577K has a screen value of -2.12.
Variant chain 1 D577L has a screen value of -2.96.
chain 1 D577M gave a screen value of -2.7.
Work on chain 1 D577N yielded a screen value of -2.24.
With chain 1 D577Q the screen value was -2.41.
Work on chain 1 D577R yielded a screen value of -2.77.
chain 1 D577V gave a screen value of -2.26.
For chain 1 D577W, the screen value was -2.9.
In the case of chain 1 D577Y, the screen value is reported as -2.59.
Work on chain 1 E540F yielded a screen value of -2.97.
In the case of chain 1 E547A, the screen value is reported as -2.3.
Variant chain 1 E547C has a screen value of -2.2.
Variant chain 1 E547F has a screen value of -1.69.
Variant chain 1 E547G has a screen value of -2.81.
chain 1 E547I showed a screen value of -2.45.
chain 1 E547M showed a screen value of -1.68.
With chain 1 E547V the screen value was -2.1.
chain 1 E547W was tested, and the screen value was -2.89.
With chain 1 E550A the screen value was -2.77.
With chain 1 E550D the screen value was -1.79.
chain 1 E550G gave a screen value of -2.84.
Work on chain 1 E550K yielded a screen value of -2.04.
For chain 1 E550V, the screen value was -2.76.
In the case of chain 1 E555W, the screen value is reported as -1.84.
Variant chain 1 E563F has a screen value of -1.96.
chain 1 E563G gave a screen value of -1.92.
Work on chain 1 E563L yielded a screen value of -1.4.
chain 1 E563M was tested, and the screen value was -1.5.
chain 1 E563W was tested, and the screen value was -2.93.
chain 1 E563Y gave a screen value of -2.45.
With chain 1 E573A the screen value was -1.17.
With chain 1 E573D the screen value was -1.16.
Variant chain 1 E573G has a screen value of -2.56.
Work on chain 1 E573K yielded a screen value of -1.32.
Variant chain 1 E573L has a screen value of -2.11.
chain 1 E573R gave a screen value of -1.65.
Work on chain 1 E573W yielded a screen value of -2.52.
Variant chain 1 E575F has a screen value of -1.16.
chain 1 E575G showed a screen value of -1.41.
In the case of chain 1 E575N, the screen value is reported as -1.15.
In the case of chain 1 E575P, the screen value is reported as -1.33.
chain 1 E575R gave a screen value of -1.6.
chain 1 E575T gave a screen value of -1.44.
chain 1 F553C showed a screen value of -2.38.
In the case of chain 1 F553S, the screen value is reported as -2.83.
With chain 1 F553V the screen value was -1.32.
chain 1 F553Y gave a screen value of -2.41.
Variant chain 1 F564A has a screen value of -2.55.
chain 1 F564C gave a screen value of -1.62.
With chain 1 F564D the screen value was -2.53.
chain 1 F564G gave a screen value of -2.97.
chain 1 F564I gave a screen value of -1.74.
For chain 1 F564L, the screen value was -1.7.
In the case of chain 1 F564N, the screen value is reported as -2.93.
For chain 1 F564S, the screen value was -2.74.
For chain 1 F564T, the screen value was -2.07.
Work on chain 1 F564V yielded a screen value of -2.3.
With chain 1 F564W the screen value was -2.35.
chain 1 F583C showed a screen value of -2.31.
Variant chain 1 F583I has a screen value of -1.72.
chain 1 F583L was tested, and the screen value was -1.78.
For chain 1 F583S, the screen value was -2.62.
In the case of chain 1 F583V, the screen value is reported as -2.31.
With chain 1 F583Y the screen value was -1.68.
With chain 1 G572E the screen value was -2.36.
chain 1 G572R showed a screen value of -2.78.
Variant chain 1 G572V has a screen value of -2.77.
In the case of chain 1 G572W, the screen value is reported as -2.24.
Work on chain 1 G578C yielded a screen value of -1.66.
chain 1 G578D showed a screen value of -1.53.
chain 1 G578E was tested, and the screen value was -1.21.
chain 1 G578F showed a screen value of -2.12.
With chain 1 G578L the screen value was -2.28.
With chain 1 G578T the screen value was -2.3.
For chain 1 G578V, the screen value was -2.83.
With chain 1 G578Y the screen value was -2.41.
For chain 1 G581A, the screen value was -2.84.
For chain 1 G581C, the screen value was -2.66.
For chain 1 G581D, the screen value was -2.22.
chain 1 G581R showed a screen value of -2.96.
Variant chain 1 G581S has a screen value of -2.77.
chain 1 G581V was tested, and the screen value was -2.59.
chain 1 I559F gave a screen value of -1.21.
Variant chain 1 I559M has a screen value of -1.42.
chain 1 I559N showed a screen value of -2.48.
chain 1 I559S was tested, and the screen value was -1.61.
Variant chain 1 I559T has a screen value of -2.21.
With chain 1 I560A the screen value was -1.35.
chain 1 I560D showed a screen value of -2.15.
Variant chain 1 I560G has a screen value of -2.38.
In the case of chain 1 I560W, the screen value is reported as -2.4.
chain 1 I562C was tested, and the screen value was -2.84.
chain 1 I562F was tested, and the screen value was -2.51.
In the case of chain 1 I562M, the screen value is reported as -1.57.
With chain 1 I562N the screen value was -1.85.
With chain 1 I562S the screen value was -2.46.
In the case of chain 1 I562T, the screen value is reported as -2.61.
For chain 1 I562W, the screen value was -2.85.
Variant chain 1 K558D has a screen value of -2.59.
chain 1 K558G gave a screen value of -2.62.
chain 1 K558N showed a screen value of -1.29.
chain 1 K558W gave a screen value of -2.78.
In the case of chain 1 K576D, the screen value is reported as -1.75.
For chain 1 K576F, the screen value was -2.16.
For chain 1 K576I, the screen value was -1.18.
In the case of chain 1 K576L, the screen value is reported as -1.83.
Variant chain 1 K576M has a screen value of -1.51.
chain 1 K576P was tested, and the screen value was -2.88.
Variant chain 1 K576V has a screen value of -1.06.
chain 1 K576W gave a screen value of -2.17.
For chain 1 K576Y, the screen value was -1.6.
Work on chain 1 K580D yielded a screen value of -2.63.
With chain 1 K580G the screen value was -2.39.
Work on chain 1 K580W yielded a screen value of -1.55.
Work on chain 1 K580Y yielded a screen value of -1.88.
In the case of chain 1 L551E, the screen value is reported as -2.9.
Variant chain 1 L551F has a screen value of -2.93.
chain 1 L551P was tested, and the screen value was -1.38.
Variant chain 1 L551Q has a screen value of -2.06.
For chain 1 L551R, the screen value was -2.52.
chain 1 L551T showed a screen value of -2.85.
Variant chain 1 L551V has a screen value of -1.51.
chain 1 L571G was tested, and the screen value was -1.24.
chain 1 L571P gave a screen value of -2.25.
